System: human periosteum derived cells (hPDCs)
Assay: Gene expression of bone markers in hPDCs in 2D culture (Taqman PCR)
Type: cell-based
Settings: two stage protocol, six factors minus one, 4 days
Method: Same experimental design as in A. C) Identification of factors involved in osteoblast maturation. hPDCs were treated with OM and TGFβ1 for 6 days, followed by stimulation with GM (negative control), GM containing six factors or GM supplement with six minus one factor for 4 days. The factors are ascorbic acid (Asc. Ac., 57 μM), TNFα (50 ng/ml), IL6 (10 ng/ml), EGF (20 ng/ml), Ca (6 mM) and Pi (4 mM). To evaluate osteoblast maturation, gene expression of RUNX2, OSX, DLX5, iBSP, OC and RANKL is measured with Taqman PCR. […] Gene expression is expressed as fold increase as compared to the GM condition. […] Gene expression is expressed as fold increase as compared to hPDCs cultured in OM/TGFβ1 (n=3, error bars: standard deviations, *p≦00.05, Mann-Whitney U test).
Cell culture. […] For in vitro osteogenic differentiation assays, passage 6 to passage 9 hPDCs (pool of four different donors) were seeded at 3000 cells/cm^2 in either 96-well plates to assess proliferation and alkaline phosphatase activity or in the middle eight wells of a 24-well plate for quantifying gene expression. […]
Quantitative PCR. […]

B1: EGF: growth factor ligand, 20 ng/ml (protein, UniProt P01133 23-1207, looked up)
Pro-epidermal growth factor: PQHWSCPEGTLAGNGNSTCVGPAPFLIFSHGNSIFRIDTEGTNYEQLVVDAGVSVIMDFHYNEKRIYWVDLERQLLQRVFLNGSRQERVCNIEKNVSGMAINWINEEVIWSNQQEGIITVTDMKGNNSHILLSALKYPANVAVDPVERFIFWSSEVAGSLYRADLDGVGVKALLETSEKITAVSLDVLDKRLFWIQYNREGSNSLICSCDYDGGSVHISKHPTQHNLFAMSLFGDRIFYSTWKMKTIWIANKHTGKDMVRINLHSSFVPLGELKVVHPLAQPKAEDDTWEPEQKLCKLRKGNCSSTVCGQDLQSHLCMCAEGYALSRDRKYCEDVNECAFWNHGCTLGCKNTPGSYYCTCPVGFVLLPDGKRCHQLVSCPRNVSECSHDCVLTSEGPLCFCPEGSVLERDGKTCSGCSSPDNGGCSQLCVPLSPVSWECDCFPGYDLQLDEKSCAASGPQPFLLFANSQDIRHMHFDGTDYGTLLSQQMGMVYALDHDPVENKIYFAHTALKWIERANMDGSQRERLIEEGVDVPEGLAVDWIGRRFYWTDRGKSLIGRSDLNGKRSKIITKENISQPRGIAVHPMAKRLFWTDTGINPRIESSSLQGLGRLVIASSDLIWPSGITIDFLTDKLYWCDAKQSVIEMANLDGSKRRRLTQNDVGHPFAVAVFEDYVWFSDWAMPSVMRVNKRTGKDRVRLQGSMLKPSSLVVVHPLAKPGADPCLYQNGGCEHICKKRLGTAWCSCREGFMKASDGKTCLALDGHQLLAGGEVDLKNQVTPLDILSKTRVSEDNITESQHMLVAEIMVSDQDDCAPVGCSMYARCISEGEDATCQCLKGFAGDGKLCSDIDECEMGVPVCPPASSKCINTEGGYVCRCSEGYQGDGIHCLDIDECQLGEHSCGENASCTNTEGGYTCMCAGRLSEPGLICPDSTPPPHLREDDHHYSVRNSDSECPLSHDGYCLHDGVCMYIEALDKYACNCVVGYIGERCQYRDLKWWELRHAGHGQQQKVIVVAVCVVVLVMLLLLSLWGAHYYRTQKLLSKNPKNPYEESSRDVRSRRPADTEDGMSSCPQPWFVVIKEHQDLKNGGQPVAGEDGQAADGSMQPTSWRQEPQLCGMGTEQGCWIPVSSDKGSCPQVMERSFHMPSYGTQTLEGGVEKPHSLLSANPLWQQRALDPPHQMELTQ
modifications: Pro-epidermal growth factor
notes: growth factor ligand, 20 ng/ml
For B1, the “RANKL expression in medium devoid of the factor” value was “lower levels” and the “role in DLX5 transcription” value was “required”.
